Source: publication PMC9482650, “Quantitative fragmentomics allow affinity mapping of interactomes” (Nature Communications, 2022)

T1: APBA2_1, Q99767
T1 sequence (Q99767 563-664, limits assumed, looked up): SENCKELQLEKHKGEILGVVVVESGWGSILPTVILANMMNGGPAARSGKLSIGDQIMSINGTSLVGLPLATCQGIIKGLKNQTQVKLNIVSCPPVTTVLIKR

T2: DFNB31_1, Q9P202
T2 sequence (Q9P202 135-233, limits assumed, looked up): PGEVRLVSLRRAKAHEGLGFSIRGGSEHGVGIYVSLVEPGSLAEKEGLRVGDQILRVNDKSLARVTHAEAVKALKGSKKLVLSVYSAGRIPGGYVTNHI

T3: DVL3, Q92997
T3 sequence (Q92997 244-331, limits assumed, looked up): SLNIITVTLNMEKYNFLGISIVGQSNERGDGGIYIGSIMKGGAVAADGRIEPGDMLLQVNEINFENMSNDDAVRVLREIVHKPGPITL

T4: GRIP1_2, Q9Y3R0
T4 sequence (Q9Y3R0 145-248, limits assumed, looked up): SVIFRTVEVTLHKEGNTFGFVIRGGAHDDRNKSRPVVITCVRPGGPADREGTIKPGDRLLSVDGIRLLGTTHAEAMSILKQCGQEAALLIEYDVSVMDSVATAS

T5: GRIP1_3, Q9Y3R0
T5 sequence (Q9Y3R0 247-346, limits assumed, looked up): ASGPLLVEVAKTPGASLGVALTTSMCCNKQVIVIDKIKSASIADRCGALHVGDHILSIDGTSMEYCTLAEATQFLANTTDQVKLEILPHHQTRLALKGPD

T6: LRRC7, Q96NW7
T6 sequence (Q96NW7 1440-1537, limits assumed, looked up): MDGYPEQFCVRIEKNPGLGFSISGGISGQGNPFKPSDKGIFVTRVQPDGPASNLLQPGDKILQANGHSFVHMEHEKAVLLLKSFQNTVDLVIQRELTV

T7: MPDZ_12, O75970
T7 sequence (O75970 1857-1958, limits assumed, looked up): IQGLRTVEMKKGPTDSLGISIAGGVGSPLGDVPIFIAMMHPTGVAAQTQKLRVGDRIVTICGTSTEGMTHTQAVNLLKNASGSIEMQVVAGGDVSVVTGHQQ

T8: PDZRN3_1, Q9UPQ7
T8 sequence (Q9UPQ7 244-349, limits assumed, looked up): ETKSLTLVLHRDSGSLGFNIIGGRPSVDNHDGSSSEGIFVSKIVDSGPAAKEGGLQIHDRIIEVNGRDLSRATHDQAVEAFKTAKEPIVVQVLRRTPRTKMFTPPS

T9: RADIL, Q96JH8
T9 sequence (Q96JH8 971-1071, limits assumed, looked up): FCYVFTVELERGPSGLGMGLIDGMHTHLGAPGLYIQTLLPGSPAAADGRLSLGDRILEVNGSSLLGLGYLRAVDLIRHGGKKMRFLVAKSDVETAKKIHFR

T10: RHPN1, Q8TCX5
T10 sequence (Q8TCX5 508-602, limits assumed, looked up): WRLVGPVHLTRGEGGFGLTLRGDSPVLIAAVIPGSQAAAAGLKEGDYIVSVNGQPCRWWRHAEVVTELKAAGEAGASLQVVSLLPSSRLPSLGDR

T11: SNTB1, Q13884
T11 sequence (Q13884 107-205, limits assumed, looked up): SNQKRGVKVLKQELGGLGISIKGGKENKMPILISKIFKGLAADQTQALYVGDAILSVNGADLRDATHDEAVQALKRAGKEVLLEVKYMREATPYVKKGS

T12: SNTG2, Q9NY99
T12 sequence (Q9NY99 68-166, limits assumed, looked up): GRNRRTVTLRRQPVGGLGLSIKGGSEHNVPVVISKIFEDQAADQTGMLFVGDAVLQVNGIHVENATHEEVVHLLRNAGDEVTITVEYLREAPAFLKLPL


What was measured:
Assay in all cases: holdup assay
Set-up in all cases: key: below the threshold = too weak to quantify, mostly under pKd 3.1 to 4
Settings in all cases: plain residues with an end cap or a label only (N-terminal biotin on a linker: ado-ado)
[1] = biological target: AHNAK1, Q09666
Chain of AHNAK1, Q09666 (Q09666 4-100): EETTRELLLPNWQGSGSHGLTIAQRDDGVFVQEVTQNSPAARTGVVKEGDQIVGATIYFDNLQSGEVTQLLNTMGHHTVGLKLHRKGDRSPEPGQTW

[2] = biological target: T1, APBA2_1, Q99767
[3] = biological target: ARHGEF12, Q9NZN5-2
Chain of ARHGEF12, Q9NZN5-2 (Q9NZN5 other isoform, or with tags, fused parts or gaps): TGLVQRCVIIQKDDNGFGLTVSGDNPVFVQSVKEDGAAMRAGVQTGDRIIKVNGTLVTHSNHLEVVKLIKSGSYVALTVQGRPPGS

[4] = biological target: T2, DFNB31_1, Q9P202
[5] = biological target: DLG1_2, Q12959
Chain of DLG1_2, Q12959 (Q12959 314-412): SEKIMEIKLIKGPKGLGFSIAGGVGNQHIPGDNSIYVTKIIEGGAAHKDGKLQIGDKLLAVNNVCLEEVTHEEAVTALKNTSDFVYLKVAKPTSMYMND

[6] = biological target: DLG2_3, Q15700
[7] = biological target: DLG4_3, P78352
Chain of DLG4_3, P78352 (P78352 306-403): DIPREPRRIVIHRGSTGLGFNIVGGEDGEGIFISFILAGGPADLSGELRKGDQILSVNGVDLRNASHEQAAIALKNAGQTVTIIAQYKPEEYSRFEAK

[8] = biological target: T3, DVL3, Q92997
[9] = biological target: T4, GRIP1_2, Q9Y3R0
[10] = biological target: T5, GRIP1_3, Q9Y3R0
[11] = biological target: Inadl_10, Q8NI35
Chain of Inadl_10, Q8NI35 (Q8NI35 1673-1763): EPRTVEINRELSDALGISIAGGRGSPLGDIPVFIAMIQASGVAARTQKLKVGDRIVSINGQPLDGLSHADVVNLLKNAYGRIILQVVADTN

[12] = biological target: Inadl_4, Q8NI35
Chain of Inadl_4, Q8NI35 (Q8NI35 547-651): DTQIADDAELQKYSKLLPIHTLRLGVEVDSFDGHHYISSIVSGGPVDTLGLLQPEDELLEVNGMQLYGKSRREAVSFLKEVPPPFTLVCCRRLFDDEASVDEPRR

[13] = biological target: T6, LRRC7, Q96NW7
[14] = biological target: MAGI2_3, Q86UL8
Chain of MAGI2_3, Q86UL8 (Q86UL8 600-682): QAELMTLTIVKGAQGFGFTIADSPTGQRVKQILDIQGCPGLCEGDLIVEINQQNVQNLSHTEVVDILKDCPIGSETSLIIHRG

[15] = biological target: MAGI2_5, Q86UL8
Chain of MAGI2_5, Q86UL8 (Q86UL8 915-1017): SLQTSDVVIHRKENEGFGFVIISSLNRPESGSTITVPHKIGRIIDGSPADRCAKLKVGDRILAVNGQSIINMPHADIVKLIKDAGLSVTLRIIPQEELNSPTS

[16] = biological target: T7, MPDZ_12, O75970
[17] = biological target: NHERF4_2, Q86UT5
Chain of NHERF4_2, Q86UT5 (Q86UT5 220-308): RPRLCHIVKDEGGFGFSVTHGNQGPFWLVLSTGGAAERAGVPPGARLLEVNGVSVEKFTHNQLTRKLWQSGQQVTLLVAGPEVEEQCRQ

[18] = biological target: PARD3_3, Q8TEW0
Chain of PARD3_3, Q8TEW0 (Q8TEW0 582-685): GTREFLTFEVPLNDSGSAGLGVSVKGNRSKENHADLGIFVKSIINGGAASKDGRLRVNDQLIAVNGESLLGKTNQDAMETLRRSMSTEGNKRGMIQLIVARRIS

[19] = biological target: T8, PDZRN3_1, Q9UPQ7
[20] = biological target: T9, RADIL, Q96JH8
[21] = biological target: T10, RHPN1, Q8TCX5
[22] = biological target: SCRIB_1, Q14160
Chain of SCRIB_1, Q14160 (Q14160 718-814): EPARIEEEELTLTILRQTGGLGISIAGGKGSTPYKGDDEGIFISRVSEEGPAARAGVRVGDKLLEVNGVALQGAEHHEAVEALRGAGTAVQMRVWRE

[23] = biological target: SCRIB_3, Q14160
Chain of SCRIB_3, Q14160 (Q14160 999-1103): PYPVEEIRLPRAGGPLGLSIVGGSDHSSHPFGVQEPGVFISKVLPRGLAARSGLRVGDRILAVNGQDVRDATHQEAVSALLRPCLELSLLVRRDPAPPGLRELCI

[24] = biological target: T11, SNTB1, Q13884
[25] = biological target: T12, SNTG2, Q9NY99

| Binder | pKd [1] | pKd [2] | pKd [3] | pKd [4] | pKd [5] | pKd [6] | pKd [7] | pKd [8] | pKd [9] | pKd [10] | pKd [11] | pKd [12] | pKd [13] | pKd [14] | pKd [15] | pKd [16] | pKd [17] | pKd [18] | pKd [19] | pKd [20] | also measured |
| --- | --- | --- | --- | --- | --- | --- | --- | --- | --- | --- | --- | --- | --- | --- | --- | --- | --- | --- | --- | --- | --- |
| THHRKIHTRV [ZNF599, Q96NL3] | below the threshold | below the threshold | 4.3 | 3.82 | 5.53 | 4.41 | 4.38 | below the threshold | below the threshold | below the threshold | below the threshold | 3.57 | below the threshold | 3.82 | 3.75 | below the threshold | below the threshold | below the threshold | 3.75 | 3.62 | pKd [21]: 4; pKd [22]: 3.98; pKd [23]: 3.75; pKd [24]: 4.36; pKd [25]: 4.13 |
| VISSDDLTEL [CAPN6, Q9Y6Q1] | below the threshold | below the threshold | 4.91 | 3.56 | below the threshold | 3.53 | below the threshold | below the threshold | below the threshold | below the threshold | below the threshold | below the threshold | below the threshold | 3.68 | 3.53 | below the threshold | below the threshold | 3.84 | below the threshold | below the threshold | pKd [21]: 4.5; pKd [22]: 3.6; pKd [23]: 3.86; pKd [24]: below the threshold; pKd [25]: below the threshold |
| IQISELETNV [SLC1A7, O00341] | below the threshold | below the threshold | 3.71 | 4.19 | 4.91 | below the threshold | below the threshold | below the threshold | below the threshold | below the threshold | below the threshold | below the threshold | below the threshold | 3.96 | 4.11 | below the threshold | below the threshold | 3.68 | 3.84 | below the threshold | pKd [21]: 4.88; pKd [22]: 4.11; pKd [23]: 4.74; pKd [24]: 5.37; pKd [25]: 4.91 |

More lines, main results first:

| pKd [1] | pKd [2] | pKd [3] | pKd [4] | pKd [5] | pKd [6] | pKd [7] | pKd [8] | pKd [9] | pKd [10] | pKd [11] | pKd [12] | pKd [13] | pKd [14] | pKd [15] | pKd [16] | pKd [17] | pKd [18] | pKd [19] | pKd [20] | Binder | also measured |
| --- | --- | --- | --- | --- | --- | --- | --- | --- | --- | --- | --- | --- | --- | --- | --- | --- | --- | --- | --- | --- | --- |
| below the threshold | below the threshold | 3.93 | 4.11 | below the threshold | below the threshold | below the threshold | below the threshold | below the threshold | below the threshold | below the threshold | below the threshold | below the threshold | 3.51 | 3.59 | below the threshold | below the threshold | 3.48 | 4.42 | below the threshold | AKADAQESRL [PLCB2, Q00722] | pKd [21]: 4.53; pKd [22]: 4.2; pKd [23]: 4.44; pKd [24]: 4.43; pKd [25]: 4.81 |
| below the threshold | below the threshold | below the threshold | 3.77 | 5.09 | 3.77 | 3.76 | 3.61 | 3.49 | below the threshold | below the threshold | below the threshold | below the threshold | 3.83 | below the threshold | below the threshold | below the threshold | 3.58 | 3.85 | 3.63 | TNSKQGETTV [FZD1, Q9UP38] | pKd [21]: 4.14; pKd [22]: 4.07; pKd [23]: 4.38; pKd [24]: 4.72; pKd [25]: 4.16 |
| below the threshold | 3.55 | 3.93 | below the threshold | below the threshold | 3.88 | 3.84 | below the threshold | 3.57 | below the threshold | below the threshold | below the threshold | below the threshold | below the threshold | below the threshold | below the threshold | below the threshold | below the threshold | 3.48 | 3.57 | TFSRRPKTRV [CD226, Q15762] | pKd [21]: below the threshold; pKd [22]: below the threshold; pKd [23]: below the threshold; pKd [24]: below the threshold; pKd [25]: 3.55 |
